These results are taken from publication PMC5615210, “Design and Characterization of a Human Monoclonal Antibody that Modulates Mutant Connexin 26 Hemichannels Implicated in Deafness and Skin Disorders” (Frontiers in Molecular Neuroscience, 2017).

Ends that are not written are not given here. * marks the point of attachment. Biotin = O=C1N[C@H]2[C@H](CS[C@H]2CCCCC(=O)*)N1

Assay [1] addresses T1, pepEC1.1, peptide corresponding to residues 41-56 of Cx26 (Homo sapiens).
T1 construct: connexin 26 (Cx26), residues 41-56 in the EC1 domain; also called bait peptide; cognate peptide; source: synthetic peptide (Chinese Peptide Company)
T1 chain: Biotin-KEVWGDEQADFVCNTL
The assay can be described thus: ELISA; avidin-coated wells (1 ug/well), biotinylated pepEC1.1 captured (0.05 ug/well), abEC1.1 (1 mg/ml, diluted 1:100 in M-PBST) 1 h at 37 C, goat anti-human HRP conjugate, ABTS, OD at 405 nm. To be noted: both partners purified.

Assay [2] deals with endogenous Cx26 of mouse cochlear organotypic cultures (Mus musculus C57BL6/N, UniProt Q00977). Briefly: immunostaining of cells or tissue; cochlear organotypic cultures of P5 mice fixed in 4% PFA, not permeabilised, abEC1.1 (2 ug/ml) overnight at 4 C, fluorescein anti-human IgG secondary antibody, confocal microscopy; control with abEC1.1 pre-incubated overnight with pepEC1.1 at 1:10 (w/w). To be noted: one partner purified.

B1: abEC1.1 antibody (scFv-Fc fusion protein) (scFv, V domains shown)
VH: QVQLQQSGGGVVQPGRSLRLSCAASGFTFSSYAMHWVRQAPGKGLEWVAVISHGGSNKYYADSVKGRFTISRDNSKNTLYLQMNSLRAEDTAVYYCARDFSWRGYYMDVWGKGTLVTVSS
VL: ETTLTQSPATLSLSPGERATLSCRASQSISSYLAWYQQKPGQAPRLLIYGASTRATGIPDRFSGSGSGTDFTLTISRLEPEDFAVYYCQQYGSSPRTFGGGTKVEIK
notes: scFv domain of abEC1.1 (VH and VL joined by a linker of seven amino acids); scFv-Fc format from a modified pFUSE vector (pfuse-hg1fc2); also called wild type abEC1.1; source: FreeStyle 293-F cells, transfected, purified (HiTrap Protein A HP); not shown: Fc (hinge and Fc of human IgG1), C-terminal, kept
In the case of B1, the binding result in assay [1] and in assay [2] was “binds” throughout.
